assay: soluble on expression in E. coli; label from the status in PepcDB or PDB records

Sequence	soluble on expression in E. coli
MVMPESHIHNIPMEQCVLVALMTFALSYELIAQDLDEGCFYPERHKQIYNAIVELANENQPYDVVMVEQRLKSKNLLHVLGGEQYLKIMLAEAPSSFHSMEPYITQLKKLKAHRQVEWLGQRISSMAQDTTQPDVFAEAENILGQVDNQEQSDQGMSFEAALDMALTEMIEKAEAKDKQQFTGVKFNLKHLDELLGTVQKGHFCVVGGRPGSGKSTLAQMLALDTASSFGKGVLFISAEMDQSTLANRMISALGLIPYHNIHNAELYNGLMKDYADAKAAYQRLPIWIQPKQKPSLSEVRSYARRAKRRYKELGCIIVDYLQLLRDPSKKDRFQEVSSISRELKSMAKEFECPVIALVQLNREAEKGKRPKASDIKESGQIEQDADQIILVNPLTDPEDSTKPMGITELIVVKNRHGKRGAVRVLDYLETCRFRSVEEQAEP	not soluble
MVMVNFTAGKWISEPKVSEVTSEFVSITTEPKTDFWQRSYYGFRNENAPALLIDSKDNFTFTAKVSFAYQQLFDQCGLIIYLDNENWFKASIEYENQSFSRLGSVVTNLGYSDWATTDIPLPKEIWYRLSRRGPDFLIESSFDGLVFNQMRIFHLHRLGETTIEMGKCNPPLPTQKVVSFGVYACSPSESSFTAKFTEMSLEPCKWLAHLEHHHHHH	soluble
MVNDLTPHFEDVQAHYDLSDDFFRLFLDPTQTYSCAHFEREDMTLEEAQIAKIDLALGKLGLQPGMTLLDIGCGWGATMRRAIAQYDVNVVGLTLSKNQAAHVQKSFDEMDTPRDRRVLLAGWEQFNEPVDRIVSIGAFEHFGHDRHADFFARAHKILPPDGVLLLHTITGLTRQQMVDHGLPLTLWLARFLKFIATEIFPGGQPPTIEMVEEQSAKTGFTLTRRQSLQPHYARTLDLWAEALQEHKSEAIAIQSEEVYERYMKYLTGCAKLFRVGYIDVNQFTLAK	soluble
MVNGSLGSRETETSAVKMGKDNKEHKESKESKTVDNYEARMPAVLPFAKPLASKKLNKKVLKTVKKASKAKNVKRGVKEVVKALRKGEKGLVVIAGDISPADVISHIPVLCEDHSVPYIFIPSKQDLGAAGATKRPTSVVFIVPGSNKKKDGKNKEEEYKESFNEVVKEVQAL	soluble
MVNRIQNPILPGFHPDPSIVRVGDDYYIATSTFEWFPGVRIHHSRDLKHWRFVSSPLTRTSQLDMKGNMNSGGIWAPCLSYHDGTFYLIYTDVKQWHGAFKDAHNYLVTAQNIEGPWSDPIYLNSSGFDPSLFHDDDGRKWLVNMIWDYRKGNHPFAGIILQEYSEAEQKLVGPVKNIYKGTDIQLTEGPHLYKKDGYYYLLVAEGGTEYEHAATLARSQSIDGPYETDPSYPLVTSTGQPELALQKAGHGSLVETQNGEWYLAHLCGRPLKGKYCTLGRETAIQKVNWTEDGWLRIEDGGNHPLREVTAPDLPEHPFEKEPELDDFDAPQLHHQWNTLRIPADPSWCSLEERPGHLRLRGMESLTSVHSQSLVARRQQSFHCEVETKLEYQPESFQHMAGLVIYYDTEDHVYLHVTWHEEKGKCLQIIQTKGGNYDELLASPIPLAEEKAVYLKGRIHRETMHLYFKQEGEAEWQPVGPTIDVTHMSDDSAKQVRFTGTFVGMATQDLSGTKKPADFDYFRYKELDQ	soluble
MVNRLINSRSPYLRKAANQPVEWFEWGEEAFAKAKKEDKPILLSIGGVWCHWCHVMAKESFENEEIAEMINRNFVAIKVDRDERPDIDKRYQEFVMATTGSGGWPLTVFLTPDGKPFFGGTYFPPEDRYHLPGFKTVLRKIAEMWRHDRERLLKSAEELTEAVRRYAE	not soluble
MVNTNLEELRTQVDQLNIDLLELISKRANLVQEIGKIKGTQGSLRFDPLREREMLNTILAANEGPFEDSTVQKLFKEIFKAGLELQEEDHSKALLVSRKNKKEDTIVTVKGLPIGNGEPVFVFGPCSVESYEQVAAVAESIKAKGLKLIRGGAFKPRTSPYDFQGLGLEGLKILKRVSDEYGLGVISEIVTPADIEVALDYVDVIQIGARNMQNFELLKAAGRVDKPILLKRGLSATIEEFIGAAEYIMSQGNGKIILCERGIRTYEKATRNTLDISAVPILKKETHLPVMVDVTHSTGRKDLLLPCAKAALAIEADGVMAEVHPDPAVALSDSAQQMDIPEFEEFWNAILASNLVPHKIK	not soluble
MVNVAVNGYGTIGKRVADAIIKQPDMKLVGVAKTSPNYEAFIAHRRGIRIYVPQQSIKKFEESGIPVAGTVEDLIKTSDIVVDTTPNGVGAQYKPIYLQLQRNAIFQGGEKAEVADISFSALCNYNEALGKKYIRVVSCNTTALLRTICTVNKVSKVEKVRATIVRRAADQKEVKKGPINSLVPDPATVPSHHAKDVNSVIRNLDIATMAVIAPTTLMHMHFINITLKDKVEKKDILSVLENTPRIVLISSKYDAEATAELVEVARDLKRDRNDIPEVMIFSDSIYVKDDEVMLMYAVHQESIVVPENIDAIRASMKLMSAEDSMRITNESLGILKGYLI	soluble
MVPPRGDAVRGPLGPGGESVVERYWEALKGVKDPEIPVLNIVEMGMVLGVEAEGKRVKVRFRPTFSGCPAIQLIREEIVGALKEAGAEEVEVEEARTPWSTEAMTEEAREKLLGYGVAPPLPLPMAGEDPPCPRCGSREVVLKNPFGATLCKTLYQCAACGEVFEAFKTV	soluble
MVSDEDELNLLVIVVDANPIWWGKQALKESQFTLSKCIDAVMVLGNSHLFMNRSNKLAVIASHIQESRFLYPGKNGRLGDFFGDPGNPPEFNPSGSKDGKYELLTSANEVIVEEIKDLMTKSDIKGQHTETLLAGSLAKALCYIHRMNKEVKDNQEMKSRILVIKAAEDSALQYMNFMNVIFAAQKQNILIDACVLDSDSGLLQQACDITGGLYLKVPQMPSLLQYLLWVFLPDQDQRSQLILPPPVHVDYRAACFCHRNLIEIGYVCSVCLSIFCNFSPICTTCETAFKISLPPVLKAKKRN	soluble
MVSEQHAVDICLDKLRFYEVLSAHGFPVVPTALSLAELDDGDYVVKERYGAGATNIGLRLTKEEANRHAQKLEAPVFQPFIAGAEFSIDLYMTRTGRVKGAVARTREYVVNGESQITTTIRNEKLEDMCIAVASYLRLYGHAVMQVIIDYEGQFHLIECNPRFGGASTVSLEAGLDSFYWFFLESQGGDLDDYPFSRSMKEKRQIRYPADFVIDL	not soluble
MVSKRTKESIRNLNIFKGLELCIHISESVSYRVSKNRTVIFIISIGYKGVTVSKGPTYQERFTFTTQKFNAKSCLNHFLYVINPTKIDDLHFSIITGTFDDPKIQMAVECLKGLRVVNLNTPILSNTKTLAELVKTFEPTEHLKIHRYPFQTLGFAQLFQLREILPGKFPILSLNINMPLNGLLLTSSSSVGVNNNRLLTSKDFNIFLKHWIAGLKPELECIRILDYRLDWNEHTVLKGIPYEVAPMETKIKFRRKEELQLGGFDFTMSSGVKATLHFHYWDRVPITEISVVLHDSEIITFL	not soluble
MVSLCKLFGVTKQAFYKYVDHSTDSSARERFVLEFVKRVRSKDPGIGGMKLWLMYRNEFGTSQAFVGRDCFCAILSKYKLTIRKRFRAPRTTDSSHHLPQYPDLTRTLLLEHPDQLWVSDITYITIWLPDGSYVFCYLSLVTDAYTKEIIGYCVGDTLGSCYTVEALEMAVRRIAAKEIKGLIHHSDRGVQYASADYIAILRHNGILPSMTEDGNPKDNAIAERVNGIIKNELLQGMRFSSIQEVRKAVATAVHFYNNERPHMSLDMLTPVQAGEMQGPIRKRWISYREKYLNVALA	not soluble
MVSQRLHHRCDLVFFVVDSKHDQLNLDRFEFWQLTSQLLVLDVCLFDAFALEHHHHHH	not soluble
MVSVARELTVGINGFGRIGRLVLRACMEKGVKVVAVNDPFIDPEYMVYMFKYDSTHGRYKGSVEFRNGQLVVDNHEISVYQCKEPKQIPWRAVGSPYVVESTGVYLSIQAASDHISAGAQRVVISAPSPDAPMFVMGVNENDYNPGSMNIVSNASCTTNCLAPLAKVIHERFGIVEGLMTTVHSYTATQKTVDGPSRKAWRDGRGAHQNIIPASTGAAKAVTKVIPELKGKLTGMAFRVPTPDVSVVDLTCRLAQPAPYSAIKEAVKAAAKGPMAGILAYTEDEVVSTDFLGDTHSSIFDAKAGIALNDNFVKLISWYDNEYGYSHRVVDLLRYMFSRDAENLYFQ	soluble
MVTDEAGLLSNAQEEVMNGRLRAIRSSHAVEFAVVTLPSIGDAPLEDFTLKLARQWGVGNEKNNNGLLLVLVLDQRRVRFETGYGLEGYLPDGLLSRIIHDRMIPHFRSGNYAEGLSEGVLAVQQVLDGSYDVKPLEHHHHHH	not soluble
MVTFREMDISDYNEVIALWATTENVSLRDADSRPNIEAYLKRNQGLSFVAVSDSLVIGAVLVGTDGRRGYVQHLAVSSDFRGQGIGKSLIQKATDALSRIGISKTHLFVLIENVVAQDFYTKLDWYPRDEIRMFSYNSSSNPEV	not soluble
MVVFVQSRKRWTYSSAHLLVEEYPSKKVDFKEFASKLTEDEINLRVMPIFWVAGHDNAVLSSTISDSTVALLSRWDVIAAMEAVSRYKVTSMYLTFDMYWQILEHPERELEIFEDLYTFKLCEKGLTVQLREKWKEVAGAILREARTS	not soluble
MVVKFTKSEALHKEALEHIVGGVNSPSRSFKAVGGGAPIAMERGKGAYFWDVDGNKYIDYLAAYGPIITGHAHPHITKAITTAAENGVLYGTPTALEVKFAKMLKEAMPALDKVRFVNSGTEAVMTTIRVARAYTGRTKIMKFAGCYHGHSDLVLVAAGSGPSTLGTPDSAGVPQSIAQEVITVPFNNVETLKEALDKWGHEVAAILVEPIVGNFGIVEPKPGFLEKVNELVHEAGALVIYDEVITAFRFMYGGAQDLLGVTPDLTALGKVIGGGLPIGAYGGKKEIMEQVAPLGPAYQAGTMAGNPASMASGIACLEVLQQEGLYEKLDELGAMLEKGILEQAAKHNIDITLNRLKGALTVYFTTNTIEDYDAAQDTDGEMFGKFFKLMLQEGVNLAPSKYEAWFLTTEHTKEDIEYTIEAVGRAFAALADNK	not soluble
MVYKPLEASDRTELRALQSDRLQRIVTHAHENVPFYREKLDAAGVSPEDIQSIDDITKLPMTTKEDFRDEYPDGLFAVDDEEVARIHASSGTTGKPKIVSYTDDDLDTWSEVVARSLAASGTEAGDTVQNAYGYGLFTGGLGIHYGTEELGASVVPIGSGQTQRQVELMTDLESDVFTCTPSYALYLAETAEEMGHDPRDLPISTIIFGAEPCTDPMREEIEERLGVDGIDIYGLSEIIGPGVSCECHEAKDGLHIWEDHFYPEVIDPHTKEPVEEGEEGELVLTTLTKEALPVFRYRTGDLTTLNYDECACGRTMVRMDNVTGRTDDLLIVRGVNLYPSEIEHAVLDIDGVAPHYRIDLYKEDNLDILELTIERTAEQGPGDKALEDEIIERLENVLAFTPDELELVAPGSIERTQVGKVKRVYDHRD	not soluble
MVYRCTGCGQSQPKWSGQCGGCGQWNTLVEEIEAPAVGRRRAGYAGAAEGSMPVSLAEVSREDLSRVTSGLGELDRVLGGGVVPGSAILLGGDPGIGKSTLLLQTLAYLGKSARTLYVTGEESLSQVSLRAHRLGLDGHGIQALAETSLERILDTAERHKPEVLVVDSIQTVYSEALQSAPGSVGQVRECSAQLVRYAKQSSTTVFLVGHVTKEGALAGPRVLEHMVDTVLYFEGDASSRYRVVRSFKNRFGAVNELGVFAMTETGLKEVRNPSAIFLSRGDEDMPGSIVTVTREGSRPLLVEVQALVDESHLQSPRRLVVGMEMNRLAMLLAVLHRHGGVPVAAQDVFVNLVGGVRLTETAGDLAIACAVVSSFRDRPVPGEWVIFGELGLNGEIRPVPNGEERLREAAKHGFKYALVPAKNAPKQGVPGVSIIAARNLREAINALLEHHHHHH	soluble

From the DeepSol protein solubility set
